Positions count from the first letter of the chain named. Names and notes keep the numbering of the source. Blank lines part the entries; values can stand above or below the binder they belong to.
Key:
[1] = target: T1, FcγRIa extracellular domain with C-terminal His tag (human, UniProt P12314 16-292); assay: SPR (Biacore)
T1 construct: Whole entry named; also called FcgRIa; CD64A
T1 sequence (P12314 16-292): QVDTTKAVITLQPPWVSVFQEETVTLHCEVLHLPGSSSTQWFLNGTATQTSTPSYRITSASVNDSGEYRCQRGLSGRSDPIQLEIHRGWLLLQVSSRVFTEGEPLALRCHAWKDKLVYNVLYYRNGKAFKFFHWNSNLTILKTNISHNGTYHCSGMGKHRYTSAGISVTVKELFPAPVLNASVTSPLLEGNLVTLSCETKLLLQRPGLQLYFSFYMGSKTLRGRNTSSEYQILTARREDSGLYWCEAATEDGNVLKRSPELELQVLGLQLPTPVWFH

[2] = target: T2, FcγRIIa type H extracellular domain with C-terminal His tag (human, UniProt P12318 34-217); assay: SPR (Biacore)
T2 construct: extracellular domain; also called FcgRIIaH; FcγRIIa H
T2 sequence (looked up): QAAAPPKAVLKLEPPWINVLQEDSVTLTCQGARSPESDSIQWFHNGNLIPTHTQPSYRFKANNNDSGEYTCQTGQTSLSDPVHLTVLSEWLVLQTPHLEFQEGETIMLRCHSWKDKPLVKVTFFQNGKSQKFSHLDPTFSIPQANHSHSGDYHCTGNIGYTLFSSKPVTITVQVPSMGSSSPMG

[3] = target: T3, FcγRIIIa type V extracellular domain with C-terminal His tag (human, UniProt P08637 17-208); assay: SPR (Biacore)
T3 construct: extracellular domain; Allotype V158 (type V); also called FcgRIIIaV; FcγRIIIaV

[4] = target: T4, FcγRIIb extracellular domain with C-terminal His tag (human, UniProt P31994 43-217); assay: SPR (Biacore)
T4 construct: extracellular domain; For crystals it was expressed with kifunensine and trimmed with Endo F1; also called FcgRIIb; FcγRIIb extracellular region
T4 sequence (looked up): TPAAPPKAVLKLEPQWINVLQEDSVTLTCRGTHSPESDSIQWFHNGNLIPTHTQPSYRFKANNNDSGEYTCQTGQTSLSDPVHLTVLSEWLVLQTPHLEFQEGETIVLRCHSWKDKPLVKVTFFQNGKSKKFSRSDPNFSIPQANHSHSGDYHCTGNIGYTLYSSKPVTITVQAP

[5] = target: T4, FcγRIIb extracellular domain with …; assay: SPR (Biacore), relative amount of binding
[6] = target: T2, FcγRIIa type H extracellular domain …; assay: SPR (Biacore), relative amount of binding
[7] = target: T5, FcγRIIa type R extracellular domain with C-terminal His tag (human, UniProt P12318 34-217); assay: SPR; KD of IL6R-B3/IL6R-L divided by KD of the variant
T5 chain: T2 sequence (looked up) with H134R

[8] = target: T6, FcγRIIb extracellular domain with C-terminal His tag (human, UniProt P31994 43-217); assay: as above
T6 construct: extracellular domain; For crystallography it was expressed with kifunensine and trimmed with Endo F1; also called FcgRIIb; FcγRIIb extracellular region; not shown: His tag attached to the C terminus
T6 sequence (looked up): T4 sequence (looked up)

[9] = target: T6, FcγRIIb extracellular domain with …; assay: SPR; KD for FcγRIIaR divided by KD for FcγRIIb
[10] = target: T6, FcγRIIb extracellular domain with …; assay: SPR; KD for FcγRIIaH divided by KD for FcγRIIb
[11] = target: T7, FcγRIa extracellular domain with C-terminal His tag (human, UniProt P12314 16-292); assay: SPR (Biacore), antibody captured, FcγR as analyte
T7 construct: also called FcgRIa; not shown: His tag attached to the C terminus
T7 sequence (P12314 16-292): as the sequence (P12314 16-292) above

[12] = target: T5, FcγRIIa type R extracellular domain …; assay: SPR (Biacore), antibody captured, FcγR as analyte
[13] = target: T6, FcγRIIb extracellular domain with …; assay: SPR (Biacore), antibody captured, FcγR as analyte
[14] = target: T8, FcγRIIa type H extracellular domain with C-terminal His tag (human, UniProt P12318 34-217); assay: SPR (Biacore), antibody captured, FcγR as analyte
T8 construct: extracellular domain; also called FcγRIIaH; FcgRIIaH; not shown: His tag attached to the C terminus
T8 sequence (looked up): T2 sequence (looked up)

T3 sequence (P08637 17-208 F176V): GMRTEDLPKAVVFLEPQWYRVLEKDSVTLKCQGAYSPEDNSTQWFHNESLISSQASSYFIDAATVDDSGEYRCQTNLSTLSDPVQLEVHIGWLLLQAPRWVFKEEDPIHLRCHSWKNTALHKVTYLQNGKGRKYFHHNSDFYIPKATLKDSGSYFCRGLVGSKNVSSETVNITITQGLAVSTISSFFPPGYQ

B1: IL6R-BP478/IL6R-L (antibody, human IgG4 S228P, kappa)
heavy: QVQLQESGPGLVKPSETLSLTCAVSGHSISHDHAWSWVRQPPGEGLEWIGFISYSGITNYNPSLQGRVTISRDNSKNTLYLQMNSLRAEDTAVYYCARSLARTTAMDYWGEGTLVTVSSASTKGPSVFPLAPCSRSTSESTAALGCLVKDYFPEPVTVSWNSGALTSGVHTFPAVLQSSGLYSLSSVVTVPSSSLGTKTYTCNVDHKPSNTKVDKRVESKYGPPCPPCPAPDLLGDDSVFLFPPKPKDTLMISRTPEVTCVVVDVSDEDGEVKFNWYVDGVEVHNAKTKPREEQDNSTYRVVSVLTVLHQDWLNGKEYKCKVSNKALPRPIEKTISKAKGQPREPQVYTLPPSRDELTKNQVSLTCLVKGFYPSDIAVEWESNGQPENNYKTTPPVLDSDGSFFLYSKLTVDKSRWQQGNVFSCSVMHEALHNHYTQESLSLSP
light: not shown
- binding result [1]: binds
- binding result [2]: binds
- binding result [3]: binds
- fold increase of binding against IL6R-BP230/IL6R-L [4]: 1.1 fold

B2: B3 variant of GpH7-B3/GpL16-k0 with Pro at position 238 (EU numbering) substituted with Asp (antibody, human IgG1, kappa)
heavy: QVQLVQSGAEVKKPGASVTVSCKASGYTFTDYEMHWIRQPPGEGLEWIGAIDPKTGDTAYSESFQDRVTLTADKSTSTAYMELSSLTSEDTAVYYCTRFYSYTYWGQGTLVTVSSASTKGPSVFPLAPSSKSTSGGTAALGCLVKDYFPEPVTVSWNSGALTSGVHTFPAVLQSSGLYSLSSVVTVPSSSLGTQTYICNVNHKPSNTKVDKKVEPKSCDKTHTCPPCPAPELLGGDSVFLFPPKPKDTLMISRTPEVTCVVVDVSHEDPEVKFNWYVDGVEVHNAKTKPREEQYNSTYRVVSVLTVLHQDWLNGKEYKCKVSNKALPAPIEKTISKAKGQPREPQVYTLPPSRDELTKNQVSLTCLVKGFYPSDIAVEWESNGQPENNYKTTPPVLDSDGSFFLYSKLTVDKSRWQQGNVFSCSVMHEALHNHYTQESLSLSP
light: DIVMTQSPLSLPVTPGEPASISCQASESLVHSNRNTYLHWYLQKPGQSPQLLIYKVSNRFSGVPDRFSGSGSGTDFTLKISRVEAEDVGVYYCSQNTHVPPTFGQGTKVEIERTVAAPSVFIFPPSDEQLKSGTASVVCLLNNFYPREAKVQWKVDNALQSGNSQESVTEQDSKDSTYSLSSTLTLSKADYEKHKVYACEVTHQGLSSPVTKSFNRGEC
notes: also called mutation A
- binding result [5]: binds

B5: IL6R-BP565/IL6R-L (antibody, human IgG1, kappa)
heavy: QVQLQESGPGLVKPSETLSLTCAVSGHSISHDHAWSWVRQPPGEGLEWIGFISYSGITNYNPSLQGRVTISRDNSKNTLYLQMNSLRAEDTAVYYCARSLARTTAMDYWGEGTLVTVSSASTKGPSVFPLAPSSKSTSGGTAALGCLVKDYFPEPVTVSWNSGALTSGVHTFPAVLQSSGLYSLSSVVTVPSSSLGTQTYICNVNHKPSNTKVDKKVEPKSCDKTHTCPPCPAPDLLGDDSVFLFPPKPKDTLMISRTPEVTCVVVDVAEEDGEVKFNWYVDGVEVHNAKTKPREEQDNSTYRVVSVLTVLHQDWLNGKEYKCKVSNKALPRPIEKTISKAKGQPREPQVYTLPPSRDELTKNQVSLTCLVKGFYPSDIAVEWESNGQPENNYKTTPPVLDSDGSFFLYSKLTVDKSRWQQGNVFSCSVMHEALHNHYTQESLSLSP
light: not shown
notes: Anti-human IL-6R IgG1; alterations introduced into IL6R-B3 (G1d with K439E)
- KD(IIaR) of the parent polypeptide/KD(IIaR) of the altered polypeptide [7]: 4.8
- KD(IIb) of the parent polypeptide/KD(IIb) of the altered polypeptide [8]: 565
- KD(IIaR)/KD(IIb) [9]: 41.5
- KD(IIaH)/KD(IIb) [10]: 856
- Kd [11]: 2.4 nM
- Kd [12]: 230 nM
- Kd [13]: 5.5 nM
- Kd [14]: 4.7 µM

B6: IL6R-BP563/IL6R-L (antibody, human IgG1, kappa)
heavy: B5 heavy with A269S, E274D
light: not shown
notes: as for B5
- KD(IIaR) of the parent polypeptide/KD(IIaR) of the altered polypeptide [7]: 2.4
- KD(IIb) of the parent polypeptide/KD(IIb) of the altered polypeptide [8]: 196
- KD(IIaR)/KD(IIb) [9]: 29.1
- KD(IIaH)/KD(IIb) [10]: 525
- Kd [11]: 12 nM
- Kd [12]: 460 nM
- Kd [13]: 16 nM
- Kd [14]: 8.3 µM

Now from value to binder:

- binding result [6]: binds
- binding result [5]: binds
B3: B3 variant of GpH7-B3/GpL16-k0 with Leu at position 328 (EU numbering) substituted with Glu (antibody, human IgG1, kappa)
heavy: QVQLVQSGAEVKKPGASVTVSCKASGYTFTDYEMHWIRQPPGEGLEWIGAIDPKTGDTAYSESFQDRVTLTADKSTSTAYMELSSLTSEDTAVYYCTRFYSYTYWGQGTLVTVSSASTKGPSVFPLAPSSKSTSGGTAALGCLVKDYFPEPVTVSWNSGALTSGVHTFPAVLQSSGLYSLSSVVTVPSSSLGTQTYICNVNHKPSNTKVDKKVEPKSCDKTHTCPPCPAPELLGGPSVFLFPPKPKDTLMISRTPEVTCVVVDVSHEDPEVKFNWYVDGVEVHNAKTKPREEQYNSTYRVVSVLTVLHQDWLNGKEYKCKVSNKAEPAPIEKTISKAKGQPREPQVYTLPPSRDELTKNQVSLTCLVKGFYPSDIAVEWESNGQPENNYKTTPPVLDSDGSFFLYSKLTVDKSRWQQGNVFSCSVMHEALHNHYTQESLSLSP
light: B2 light
notes: also called mutation B

- binding result [1]: binds
- binding result [2]: binds
- binding result [3]: binds
- fold increase of binding against IL6R-BP230/IL6R-L [4]: 1.2 times
B4: IL6R-BP473/IL6R-L (antibody, human IgG1, kappa)
heavy: B5 heavy with A269S, E270D, A329G
light: not shown
